Assay results: article PMC7677926

Molecular target: L-ferritin-M6A (mouse L-ferritin with the Mms6 iron-binding segment M6A at its C-terminus behind a glycine spacer), with the N-terminal 6-His tag (mouse | Magnetospirillum magneticum AMB-1) (UniProt Q2W8R5)
Experiment: SEC; HiLoad 26/60 Superdex 200; 20 mM Bis-Tris pH 5.8, 500 mM KCl, 10% glycerol; oligomer judged by elution volume

stoichiometry N: 24
Substance: L-ferritin-M6A (mouse L-ferritin with the Mms6 iron-binding segment M6A at its C-terminus behind a glycine spacer), with the N-terminal 6-His tag (from UniProt Q2W8R5 116-127)
